According to publication PMC6610143 (Nature Communications, 2019):
No end group written: not given here.

T1: biotin-labeled HA peptide (HA epitope peptide (influenza A virus …, also: biotin label, position not given here))
T1 chain: YPYDVPDYA

T2: mitoNEET (Mito) fused to mCherry and the spaghetti monster HA tag (synthetic HA epitope tag (influenza A …))
T2 construct: also called Mito-mCh-smHA; smHA-tagged Mito; source: U2OS, transfected, in living cells; not shown: mCherry, internal (between Mito and smHA), kept
T2 chain: YPYDVPDYA

T3: mitoNEET (Mito) fused to mCherry and 1 × HA (synthetic HA epitope tag (influenza A …, UniProt P03437))
T3 chain: YPYDVPDYA

B1: purified recombinant HA frankenbody fused to GFP (from pET23b-FB-GFP) (scFv, V domains shown)
VH: EVKLVESGGGLVKPGGSLKLSCAASGFTFSSYGMSWVRQTPEKRLEWVATISRGGSYTYYPDSVKGRFTISRDNAKNTLYLQMSSLRSEDTAIYYCARRETYDEKGFAYWGQGTTLTVSS
VL: DIVLTQSPASLTVSLGQRATISCKSSQSLLNSGNQKNYLTWYQQKPGQPPKLLIYWASTRESGIPARFSGSGSGTDFTLNIHPVEEEDAATYYCQNDNSHPLTFGAGTKLEI
notes: also called purified FB-GFP; purified frankenbody; source: E. coli BL21 (DE3) pLysS, purified (HisTrap HP, Superdex 200)
B2: HA frankenbody fused to mEGFP (χ15F11^HA) (scFv, V domains shown)
VH: B1 VH
VL: B1 VL
notes: also called FB-GFP; FB

What was measured:
[1] = target: T1, biotin-labeled HA peptide; assay: SPR; details: both partners purified
[2] = target: T2, mitoNEET (Mito) fused to mCherry and …; assay: co-localisation of the fluorescent scFv with its tagged target in living cells; details: partners not purified
[3] = target: T3, mitoNEET (Mito) fused to mCherry and 1 …; details: partners not purified

Binder | Kd [1] [nM] | Mito/Bg (mitochondria to background fluorescent intensity ratio) [2] | Mito/Bg (mitochondria to background fluorescent intensity ratio) [3]
B1 | 14.7 ± 7.4 | – | –
B2 | – | 16.6 | 3.5
